“And” between values parts separate entries of the source, which are not always exact repeats. Equal values may be shown once.
Test: patients with anti-drug antibodies; higher = more immunogenic

Protein	patients with anti-drug antibodies
unnamed (protein) chain 1: EVQLVESGGGLVQPGGSLRLSCAASGFTFSSHDMHWVRQATGKGLEWVSGIGTAGDTYYPDSVKGRFTISRENAKNSLYLQMNSLRAGDTAVYYCARDRYSPTGHYYGMDVWGQGTTVTVSS chain 2: DIQMTQSPSTLSASVGDRVTITCRASQSISSWLAWYQQKPGKAPKLLIYKASSLESGVPSRFSGSGSGTEFTLTISSLQPDDFATYYCKQYADYWTFGQGTKVEIK	3%
unnamed (protein) chain 1: EVQLVESGGGLVQPGGSLRLSCAASGFTFSRYSMSWVRQAPGKGLELVAQINSVGNSTYYPDTVKGRFTISRDNAKNTLYLQMNSLRAEDTAVYYCASGDYWGQGTLVTVSS chain 2: DVVMTQSPLSLPVTLGQPASISCRSSQSLIYSDGNAYLHWFLQKPGQSPRLLIYKVSNRFSGVPDRFSGSGSGTDFTLKISRVEAEDVGVYYCSQSTHVPWTFGQGTKVEIK	3.5%
unnamed (protein) chain 1: EVQLVESGGDLVQPGRSLRLSCVASGFTFDDYAMHWVRQAPGKGLEWVSGVSWSGSTVGYADSVKGRFTVSRDNAQKSLYLQMNSLRAEDTALYYCVKDAYKFNYYYYGLDVWGQGTTVTVSS chain 2: EIVMTQSPATLSVSPGERATLSCRASQTILSNLAWYLQKPGQAPRLLIYGASTRATGLPARFSGSGSGTEFTLTISSLQSEDFAVYYCQQYNNWPLTFGGGTKVEIK	5%
unnamed (protein) chain 1: QVQLQQSDAELVKPGASVKISCKASGYTFTDHAIHWAKQKPEQGLEWIGYISPGNDDIKYNEKFKGKATLTADKSSSTAYMQLNSLTSEDSAVYFCKRSYYGHWGQGTTLTVSS chain 2: DIQMTQSPASLSVSVGETVTITCRASENIYSNLAWYQQKQGKSPQLLVYAATNLADGVPSRFSGSGSGTQYSLKINSLQSEDFGSYYCQHFWGTPYTFGGGTRLEIK	55%
unnamed (protein) chain 1: QVQLVESGGGVVQPGRSLRLSCAASGFTFSSYGMHWVRQAPGKGLEWVAVIWYDGSNKYYADSVKGRFTISRDNSKNTLYLQMNSLRAEDTAVYYCARDPRGATLYYYYYGMDVWGQGTTVTVSS chain 2: DIQMTQSPSSLSASVGDRVTITCRASQSINSYLDWYQQKPGKAPKLLIYAASSLQSGVPSRFSGSGSGTDFTLTISSLQPEDFATYYCQQYYSTPFTFGPGTKVEIK	2% and 0%
unnamed (protein) chain 1: QVQLVQSGAEVKKPGASVKVSCKASGYIFITYWMTWVRQAPGQGLEWMGQIFPASGSADYNEKFEGRVTMTTDTSTSTAYMELRSLRSDDTAVYYCARGGGGFAYWGQGTLVTVSS chain 2: DIQMTQSPSSLSASVGDRVTITCRTSENIYSYLAWYQQKPGKAPKLLIYNAKTLAEGVPSRFSGSGSGTDFTLTISSLQPEDFATYYCQHHYGIPFTFGQGTKVEIK	6.5%
unnamed (protein) chain 1: EVQLVESGGGLVQPGGSLRLSCAASGFTFSSSGMSWVRQAPGKGLEWVSVIASSGSNTYYADSVKGRFTISRDNSKNTLYLQMNSLRAEDTAVYYCARSIFYTTWGQGTLVTVSS chain 2: not shown	26%
unnamed (protein) chain 1: QMQLVESGGGVVQPGRSLRLSCAASGFTFRTYGMHWVRQAPGKGLEWVAVIWYDGSNKHYADSVKGRFTITRDNSKNTLNLQMNSLRAEDTAVYYCARAPQWELVHEAFDIWGQGTMVTVSS chain 2: SYVLTQPPSVSVAPGQTARITCGGNNLGSKSVHWYQQKPGQAPVLVVYDDSDRPSWIPERFSGSNSGNTATLTISRGEAGDEADYYCQVWDSSSDHVVFGGGTKLTVL	2.1%
unnamed (protein) chain 1: QVQLQQWGAGLLKPSETLSLTCAVYGGSFSGYYWSWIRQPPGKGLEWIGEINHSGSTNYNPSLKSRVTISVDTSKNQFSLKLSSVTAADTAVYYCARGYYDILTGYYYYFDYWGQGTLVTVSS chain 2: EIVLTQSPATLSLSPGERATLSCRASQSVSRYLAWYQQKPGQAPRLLIYDASNRATGIPARFSGSGSGTDSTLTISSLEPEDFAVYYCQQRSNWPRTFGQGTKVEIK	4.4%
unnamed (protein) chain 1: QVQLVQSGAEVKKPGSSVKVSCKASGYTFTDYEMHWVRQAPGQGLEWIGAVAPETGGTAYNQKFKGRATITADKSTSTAYMELSSLRSEDTAVYYCTSTVVPFAYWGQGTLVTVSS chain 2: QIQLTQSPSSLSASVGDRVTITCSASSSVSYMYWYQQKPGKAPKAWIYRTSNLASGVPSRFSGSGSGTDYTLTISSLQPEDFATYYCQQYQSLPLTFGGGTKVEIK	0%
unnamed (protein) chain 1: EVQLVQSGAEVKKPGESLKISCKGSGYSFTDYYMKWARQMPGKGLEWMGDIIPSNGATFYNQKFKGQVTISADKSISTTYLQWSSLKASDTAMYYCARSHLLRASWFAYWGQGTMVTVSS chain 2: DIVMTQSPDSLAVSLGERATINCESSQSLLNSGNQKNYLTWYQQKPGQPPKPLIYWASTRESGVPDRFSGSGSGTDFTLTISSLQAEDVAVYYCQNDYSYPYTFGQGTKLEIK	17.5%
unnamed (protein) chain 1: QVQLQESGPGLVRPSQTLSLTCTVSGYSITSDHAWSWVRQPPGRGLEWIGYISYSGITTYNPSLKSRVTMLRDTSKNQFSLRLSSVTAADTAVYYCARSLARTTAMDYWGQGSLVTVSS chain 2: DIQMTQSPSSLSASVGDRVTITCRASQDISSYLNWYQQKPGKAPKLLIYYTSRLHSGVPSRFSGSGSGTDFTFTISSLQPEDIATYYCQQGNTLPYTFGQGTKVEIK	2%
unnamed (protein) chain 1: EVQLQQSGPELEKPGASVKLSCKASGYSFTGYNMNWVKQSHGKSLEWIGHIDPYYGDTSYNQKFRGKATLTVDKSSSTAYMQLKSLTSEDSAVYYCVKGGYYGHWYFDVWGAGTTVTVSS chain 2: DIQMTQSPSSLSASLGERVSLTCRASQDIGSSLNWLQQGPDGTIKRLIYATSSLDSGVPKRFSGSRSGSDYSLTISSLESEDFVDYYCLQYVSSPPTFGAGTKLELK	58%
unnamed (protein) chain 1: QVQLVESGGGLVQPGGSLRLSCAASGFTFRSHWLSWVRQAPGKGLEWVSNINYDGSSTYYADSVKGRFTISRDNSKNTLYLQMNSLRAEDTAVYYCARDTYLHFDYWGQGTLVTVSS chain 2: DIALTQPASVSGSPGQSITISCTGTSSDVGDINDVSWYQQHPGKAPKLMIYDVNNRPSGVSNRFSGSKSGNTASLTISGLQAEDEADYYCQSYAGSYLSEVFGGGTKLTVL	0%
unnamed (protein) chain 1: EVQLVESGGGLVKPGGSLRLSCAASGFTFSNYAMSWVRQAPGKGLEWVATISSGGSHTYYLDSVKGRFTISRDNSKNTLYLQMNSLRAEDTALYYCARLFTGYAMDYWGQGTLVTVSS chain 2: QIVLTQSPATLSLSPGERATMSCTASSSVSSSYLHWYQQKPGKAPKLWIYSTSNLASGVPSRFSGSGSGTDYTLTISSLQPEDFATYYCHQYYRLPPITFGQGTKLEIK	8%
unnamed (protein) chain 1: EVQLVESGGGLVQPGGSLRLSCAASGFTFSSYVMSWVRQAPGKGLEWVATISSGGSYTYYPDSVKGRFTISRDNAKNTLYLQMNSLRAEDTAVYYCARRGDSMITTDYWGQGTLVTVSS chain 2: DIQMTQSPSSLSASVGDRVTITCKASQDVGTAVAWYQQKPGKAPKLLIYWASTRHTGVPSRFSGSGSGTDFTLTISSLQPEDFATYYCQQYSSYRTFGQGTKVEIK	0%
unnamed (protein) chain 1: EVQLVESGGGLVQPGGSLRLSCAASGFTFSPFAMSWVRQAPGKGLEWVAKISPGGSWTYYSDTVTGRFTISRDNAKNSLYLQMNSLRAEDTAVYYCARQLWGYYALDIWGQGTTVTVSS chain 2: EIVLTQSPATLSLSPGERATLSCSASISVSYMYWYQQKPGQAPRLLIYDMSNLASGIPARFSGSGSGTDFTLTISSLEPEDFAVYYCMQWSGYPYTFGGGTKVEIK	2.9%
unnamed (protein) chain 1: EVQLVESGGKLLKPGGSLKLSCAASGFTFSSFAMSWFRQSPEKRLEWVAEISSGGSYTYYPDTVTGRFTISRDNAKNTLYLEMSSLRSEDTAMYYCARGLWGYYALDYWGQGTSVTVSS chain 2: QIVLIQSPAIMSASPGEKVTMTCSASSSVSYMYWYQQKPGSSPRLLIYDTSNLASGVPVRFSGSGSGTSYSLTISRMEAEDAATYYCQQWSGYPYTFGGGTKLEIK	0.2%
unnamed (protein) chain 1: QVQLQQSGAELVKPGASVKLSCKASGYTFRSYDINWVRQRPEQGLEWIGWIFPGDGSTKYNEKFKGKATLTTDKSSSTAYMQLSRLTSEDSAVYFCARWTVVGPGYFDVWGAGTTVTVSS chain 2: QIVLTQSPAIMSASPGEKVTITCSASSSVSYMNWFQQKPGTSPKLWIYSTSNLASGVPARFSGSGSGTSYSLTISRMEAEDAATYYCQQRSSYPNTFGGGTKLEIK	28%
unnamed (protein) chain 1: EVQLVESGGGLVQPGRSLRLSCAASRFTFDDYAMHWVRQAPGKGLEWVSGISWNSGRIGYADSVKGRFTISRDNAENSLFLQMNGLRAEDTALYYCAKGRDSFDIWGQGTMVTVSS chain 2: DIQMTQSPSSVSASVGDRVTITCRASQGISSWLAWYQQKPGKAPKLLIYGASSLESGVPSRFSGSGSGTDFTLTISSLQPEDFASYYCQQANSFPYTFGQGTKLEIK	3.8%

Reference: the FLAb antibody collection
